The source of these data is US9839701B2, “Aromatic amino acid derivative and positron emission topography (PET) probe using the same” (OSAKA UNIVERSITY, priority 2013, dated 2017).

Substrate in the data set: N[C@@H](Cc1ccc(O)cc1)C(=O)O
Briefly: Promoting effect on amino acid efflux from human LAT2 stably expressing cell line. In kind it is cell-based. The conditions noted are these: other: Km for amino acid efflux, Table 7; 37.0 °C. Here is the method: In the same manner as in Example 3, the human LAT1 stably expressing cell line and the human LAT2 stably expressing cell line were seeded on separate collagen-coated 24-well plates, and after 48 hours, the cells were washed with an uptake buffer prewarmed at 37° C. An uptake buffer supplemented with 1 μM of [^14C]L-leucine or [^14C]L-alanine was added to each well, and [^14C]L-leucine or [^14C]L-alanine uptake by the cells was allowed to proceed at 37° C. for 10 minutes. The cells were washed with an uptake buffer prewarmed at 37° C., treated with the compound of Example 1 or the positive control FAMT at 1, 2, 3, 5, 10, 20, 50, 100 or 200 μM, and incubated at 37° C. for 1 minute, and the supernatants were collected. The radioactivity in each supernatant was measured as the radioactivity of the amino acid released from the cells. Subsequently, 500 μL of 0.1 M NaOH was added to each well for cell lysis, 20 μL of the lysate was used for the measurement of the protein concentration, and the remaining lysate was used for the measurement of the residual radioactivity in the cells. The sum of the residual radioactivity and the released radioactivity in each experiment was checked to confirm that there was no great difference in the total radioactivity incorporated into the cells at the preloading among the experiments. […]

B1: human LAT2 (Homo sapiens) (protein)
chain: MEEGARHRNNTEKKHPGGGESDASPEAGSGGGGVALKKEIGLVSACGIIVGNIIGSGIFVSPKGVLENAGSVGLALIVWIVTGFITVVGALCYAELGVTIPKSGGDYSYVKDIFGGLAGFLRLWIAVLVIYPTNQAVIALTFSNYVLQPLFPTCFPPESGLRLLAAICLLLLTWVNCSSVRWATRVQDIFTAGKLLALALIIIMGIVQICKGEYFWLEPKNAFENFQEPDIGLVALAFLQGSFAYGGWNFLNYVTEELVDPYKNLPRAIFISIPLVTFVYVFANVAYVTAMSPQELLASNAVAVTFGEKLLGVMAWIMPISVALSTFGGVNGSLFTSSRLFFAGAREGHLPSVLAMIHVKRCTPIPALLFTCISTLLMLVTSDMYTLINYVGFINYLFYGVTVAGQIVLRWKKPDIPRPIKINLLFPIIYLLFWAFLLVFSLWSEPVVCGIGLAIMLTGVPVYFLGVYWQHKPKCFSDFIELLTLVSQKMCVVVYPEVERGSGTEEANEDMEEQQQPMYQPTPTKDKDVAGQPQP
notes: expressed in transfected cells
Usually Km stands for the substrate concentration at which the rate is half of its maximum. For B1, the Km was found to be 32.7 µM.
